In US10570379B2, “Polypeptides for carbon-carbon bond formation and uses thereof” (INVISTA North America S.à.r.l., priority 2015, dated 2020):

Columns and labels:
[1] = Solubility of the expressed protein (Table 3); details: protein expressed in E. coli
Protocol: From a fresh LB plate containing the desired clone transformant, one colony (or small scratch) was picked to inoculate 25 mL of LB supplemented with the relevant antibiotic and the pre-culture was incubated overnight at 37° C., 230 rpm. The following morning, the TB auto-induced medium (Merck/Code product: 71491-5) was prepared by mixing 60 g TB/L supplemented with 10 mL Glycerol/L of TB and microwaved during 3+2 minutes at full power. The TB was cooled down before use and splitting it in sterile flasks. Then, the pre-culture incubated overnight in LB was centrifuged and the supernatant discarded. The obtained pellet was resuspended with 5 mL of freshly prepared TB medium and used to inoculate 500 mL of TB dispensed in sterile flasks and supplemented with the appropriate antibiotic. The inoculated medium was incubated at 28° C. for at least 20 h, 230 rpm.
The culture was centrifuged at least at 3000 g/20 min/4° C. and the pellet used immediately or stored at −80′C.
The pellets (fresh or thawed) were resuspended in 10 to 20 mL of Buffer A (50 mM Hepes+150 mM NaCl+40 mM Imidazole+5% Glycerol−pH 7.5). The resuspended cells were then sonicated in ice for, 5 min at 37% Amplitude with 5″ ON and 15″ OFF sonication pulse. The sonicated cells were centrifuged for at least 20 min at 15500 g and 4° C. The supernatant containing the soluble fraction of proteins was recovered, filtered using 0.45 or 0.2 um filters, and used for His-trap protein purification.

[2] = Screen for dual transferase/ketothiolase activity with acetyl-CoA and sodium acrylate, LC-MS detection; format: biochemical; details: for ketothiol-product: 3-oxopent-4-enoyl-CoA via thiolase activity; for thiol-product: propenoyl-CoA via transferase activity
Protocol: (§1) Acetyl-CoA was used at a final concentration of 1.5 mM and 30 mM of the substrate being studied (e.g. carboxylic acid salts, such as sodium acrylate) or 1.5 mM of propionyl-CoA in 50 mM Hepes buffer (pH 7.5). The reaction was started by addition of 0.5 mg/mL of YdiF pure protein or mutants to a final volume of 250 μL and incubated for 1 to 10 hours at 30° C.
Two controls were made from similar mixture except that the enzymes were inactivated by heating-up at 95° C. for 20 min or they were replaced by Buffer C.
(§2) All samples were prepared in triplicate and spun down at 15000 g for 20 min at 4° C. Detection of the thiol product (e.g. acryloyl-CoA) synthesized from CoA-transferase activity and the keto-thiol product (e.g. 3-oxopent-4-enoyl-CoA) due to putative thiolase activity of YdiF (or homologues) was carried out by Liquid Chromatography coupled to a qTof-Mass spectrometry (in positive mode), using a C18 column (Zorbax Eclipse C18, 2.1×50 mm, 1.8μ, Agilent, code product: 959757-902) and a gradient of 10 mM ammonium acetate and acetonitrile as mobile phase.
YdiF from Clostridium propionicum belongs to the enzymatic class EC2.8.3.8. Other members of this enzyme class with similar structural features to YdiF, as well as proteins with a CoA-transferase activity from close-by enzymatic classes, were screened for dual transferase/ketothiolase activity as described in Example 2. Acetyl-CoA and sodium acrylate were provided as substrates. LC-MS was used to detect the thiol-product (propenoyl-CoA) synthesized via the transferase activity and the ketothiol-product (3-oxopent-4-enoyl-CoA) synthesized via the thiolase activity, as described in Example 2.

[3] = Substrate specificity, 3-butenoate with acetyl-CoA, LC-MS; format: biochemical; details: substrate 3-butenoate + acetyl-CoA
Protocol: as §1, §2
(§3) To study the substrate specificity of YdiF, several commercially available substrates were provided to YdiF (and homologues) in combination with acetyl-CoA, as described in Example 2. LC-MS was used to detect the thiol-product synthesized via the transferase activity and the ketothiol-product synthesized via the thiolase activity.

[4] = Substrate specificity, propionate with acetyl-CoA, LC-MS; format: biochemical
Protocol: as §1, §2, §3

[5] = Substrate specificity, 2-hexenoate with acetyl-CoA, LC-MS; format: biochemical; details: substrate 2-hexenoate + acetyl-CoA
Protocol: as §1, §2, §3

[6] = Substrate specificity, 6-heptenoate with acetyl-CoA, LC-MS; format: biochemical; details: substrate 6-heptenoate + acetyl-CoA
Protocol: as §1, §2, §3

[7] = Substrate specificity, butyrate with acetyl-CoA, LC-MS; format: biochemical
Protocol: as §1, §2, §3

[8] = Substrate specificity, 4-pentenoate with acetyl-CoA, LC-MS; format: biochemical; details: substrate 4-pentenoate + acetyl-CoA
Protocol: as §1, §2, §3

[9] = Substrate specificity, 4-Hydroxybutyrate with acetyl-CoA, LC-MS; format: biochemical; details: substrate 4-Hydroxybutyrate + acetyl-CoA
Protocol: as §1, §2, §3
4-Hydroxybutyrate was used as a substrate with acetyl-CoA for protein 244 and the corresponding products from the transferase and ketothiolase activities of protein 244 were detected.

[10] = Mutant E324G provided with propionyl-CoA and acetyl-CoA; format: biochemical; details: propionyl-CoA + acetyl-CoA
Protocol: as §1, §2
(§4) Mutations were introduced as described in Example 1 to replace the glutamate in position 324 of YdiF (see Selmer et al., 2002) with glycine (mutant E324G) or leucine (E324L). Activity of the mutant enzymes was studied as described in Example 2.

[11] = Activity of YdiF mutant enzymes (evaluation of potential active sites); format: biochemical; details: studied as in Example 2
Protocol: YdiF mutants were prepared using the relevant primers to introduce the mutated bases via the Quick change lightning kit (Agilent, code product: 210518-5), and cloned into E. coli. In addition, all the proteins used in this experiment have the following extra amino acids added in the N-terminal extremity of the original protein sequence (SEQ ID NO:1): […]. Those additional amino acids correspond to: two amino acids (M and G), a 6×His-tag followed by a 3 amino acids linker (SSG), and a specific proteolytic cleavage site (thrombin site, underlined) (SEQ ID NO: 22). All the sequences were confirmed by DNA sequencing.
as §1, §2
Mutations were introduced as described in Example 1 at the following positions previously found to be potentially involved in the active site of other β-ketothiolases: C258A, S60A, C112A, S38A, C390A. Activity of the mutant enzymes was studied as described in Example 2.
as §4

B1: Bdigene 272: Acetate CoA-transferase YdiF from Peptostreptococcaceae bacterium oral taxon, Uniprot U2L5C9, SEQ ID NO: 5 (protein)
chain: MAKFVTLEEAVSVVKNGDTVATTGFVQVANPEALEWALGKRFEETKEPRDLTLFYCAGQGDGDCRAVNHFAKEGMLKRVVAGHFNMAPLLRQFISDNKCEAYNVPQGVLCNMVRDIAAKKPGVISHVGLNTFADPRIEGCKINLVTKEDIVELMMINGEEKLFYKTFPLTIAFIKGTYADERGNVTLENEGIPSEATSIAQSVHNCGGKVIVQVEKVVAAGTLDPKLVKVPGIYVDYIVQVDDPSMRQQCYGVDYEPELAGNVYIPLSDIPLKTPLNERKIIARRGAFEIRKGNVGNLGIGVPEVVSEVVSEEGITDWLTLTVEVGPVGGSPQGKNRFGTAINAEAILDQPYQFDFYDGGGLDIAYLGLAQADAKGNLNVSKFGDRVAGCGGFIDISQNSKAVVFCGSFTAGGLKVEVNDGKLNIVQEGKVKKFVNKVQQITFSGEYARKTGQRVFYVTERAVFQMKPEGLTLIEIAPGVDLEKDVLNQMEFKPLIAKDLKLMDERIFRPGPMGIKNDN
Q: For B1, which Solubility [1] is on record?
A: The Solubility was “✓”.

Q: What about the ketothiol-product [2] of the same molecule?
A: Its ketothiol-product is “✓”.

Q: What about the thiol-product [2] of the same molecule?
A: The thiol-product was “✓”.

B2: Bdigene 237: Acetate/Propionate CoA-transferase (YdiF) from Clostridium propionicum, Uniprot Q9L3F7, SEQ ID NO: 1 (protein, listed as Clostridium propionicum)
chain: MRKVPIITADEAAKLIKDGDTVTTSGFVGNAIPEALDRAVEKRFLETGEPKNITYVYCGSQGNRDGRGAEHFAHEGLLKRYIAGHWATVPALGKMAMENKMEAYNVSQGALCHLFRDIASHKPGVFTKVGIGTFIDPRNGGGKVNDITKEDIVELVEIKGQEYLFYPAFPIHVALIRGTYADESGNITFEKEVAPLEGTSVCQAVKNSGGIVVVQVERVVKAGTLDPRHVKVPGIYVDYVVVADPEDHQQSLDCEYDPALSGEHRRPEVVGEPLPLSAKKVIGRRGAIELEKDVAVNLGVGAPEYVASVADEEGIVDFMTLTAESGAIGGVPAGGVRFGASYNADALIDQGYQFDYYDGGGLDLCYLGLAECDEKGNINVSRFGPRIAGCGGFINITQNTPKVFFCGTFTAGGLKVKIEDGKVIIVQEGKQKKFLKAVEQITFNGDVALANKQQVTYITERCVFLLKEDGLHLSEIAPGIDLQTQILDVMDFAPIIDRDANGQIKLMDAALFAEGLMGLKEMKS
Q: With B2 as the molecule, how does the ketothiol-product [3] read?
A: The ketothiol-product was “✓”.

Q: What about the thiol-product [3] of the same molecule?
A: The thiol-product was “✓”.

Q: What about the ketothiol-product [4] of the same molecule?
A: The ketothiol-product was “✓”.

Q: And the thiol-product [4]?
A: Its thiol-product is “✓”.

Q: And the ketothiol-product [5]?
A: The ketothiol-product was “✓”.

Q: What about the thiol-product [5] of the same molecule?
A: Its thiol-product is “✓”.

Q: What about the ketothiol-product [6] of the same molecule?
A: Its ketothiol-product is “✓”.

Q: What about the thiol-product [6] of the same molecule?
A: The thiol-product was “✓”.

Q: What about the ketothiol-product [7] of the same molecule?
A: Its ketothiol-product is “✓”.

Q: What about the thiol-product [7] of the same molecule?
A: The thiol-product was “✓”.

Q: And the ketothiol-product [2]?
A: The ketothiol-product was “✓”.

Q: What about the thiol-product [2] of the same molecule?
A: The thiol-product was “✓”.

Q: And the ketothiol-product [8]?
A: Its ketothiol-product is “✓”.

Q: What about the thiol-product [8] of the same molecule?
A: The thiol-product was “✓”.

B3: Bdigene 0244: 4-Hydroxybutyrate-CoA transferase from Clostridium aminobutyricum, Uniprot Q9RM86, SEQ ID NO: 19 (protein, listed as Clostridium aminobutyricum)
chain: MDWKKIYEDRTCTADEAVKSIKSGDRVLFAHCVAEPPVLVEAMVANAAAYKNVTVSHMVTLGKGEYSKPEYKENFTFEGWFTSPSTRGSIAEGHGQFVPVFFHEVPSLIRKDIFHVDVFMVMVSPPDHNGFCCVGVSSDYTMQAIKSAKIVLAEVNDQVPVVYGDTFVHVSEIDKFVETSHPLPEIGLPKIGEVEAAIGKHCASLIEDGSTLQLGIGAIPDAVLSQLKDKKHLGIHSEMISDGVVDLYEAGVIDCSQKSIDKGKMAITFLMGTKRLYDFAANNPKVELKPVDYINHPSVVAQCSKMVCINACLQVDFMGQIVSDSIGTKQFSGVGGQVDFVRGASMSIDGKGKAIIAMPSVAKKKDGSMISKIVPFIDHGAAVTTSRNDADYVVTEYGIAEMKGKSLQDRARALINIAHPDFKDELKAEFEKRFNAAF
Q: For B3, which Solubility [1] is on record?
A: The Solubility was “✓”.

Q: What about the ketothiol-product [2] of the same molecule?
A: The ketothiol-product was “✓”.

Q: What about the thiol-product [2] of the same molecule?
A: The thiol-product was “✓”.

Q: And the ketothiol-product ([9]; listed as Protein 244)?
A: Its ketothiol-product is “✓”.

Q: What about the thiol-product ([9]; listed as Protein 244) of the same molecule?
A: The thiol-product was “✓”.

Q: What about the ketothiol-product ([9]; listed as protein 244) of the same molecule?
A: Its ketothiol-product is “detected”.

Q: What about the thiol-product ([9]; listed as protein 244) of the same molecule?
A: Its thiol-product is “detected”.

B4: E324G: YdiF mutant, glycine for the glutamate in position 324, SEQ ID NO: 3 (protein)
chain: MGHHHHHHSSGLVPRGSMRKVPIITADEAAKLIKDGDTVTTSGFVGNAIPEALDRAVEKRFLETGEPKNITYVYCGSQGNRDGRGAEHFAHEGLLKRYIAGHWATVPALGKMAMENKMEAYNVSQGALCHLFRDIASHKPGVFTKVGIGTFIDPRNGGGKVNDITKEDIVELVEIKGQEYLFYPAFPIHVALIRGTYADESGNITFEKEVAPLEGTSVCQAVKNSGGIVVVQVERVVKAGTLDPRHVKVPGIYVDYVVVADPEDHQQSLDCEYDPALSGEHRRPEVVGEPLPLSAKKVIGRRGAIELEKDVAVNLGVGAPEYVASVADEEGIVDFMTLTAGSGAIGGVPAGGVRFGASYNADALIDQGYQFDYYDGGGLDLCYLGLAECDEKGNINVSRFGPRIAGCGGFINITQNTPKVFFCGTFTAGGLKVKIEDGKVIIVQEGKQKKFLKAVEQITFNGDVALANKQQVTYITERCVFLLKEDGLHLSEIAPGIDLQTQILDVMDFAPIIDRDANGQIKLMDAALFAEGLMGLKEMKS
Q: With B4 as the molecule, how does the “keto-thiol product (3-oxopentanoyl-CoA)” value [10] read?
A: The value was “presence of the keto-thiol product”.

Q: What about the transferase activity [11] of the same molecule?
A: The transferase activity was “Abolition of transferase activity”.

B5: Bdigene 0345: Succinyl-CoA--D-citramalate CoA-transferase from Chloroflexus aurantiacus, Uniprot A9WGE3 (protein, UniProt A9WGE3 1-402, looked up)
Succinyl-CoA--D-citramalate …: MSSQRPPRPLDDVRVLELGAFLAGPFCGQLLADFGAEVIKVEPPGKGDPMREWGRHRYKGRTLWWPVLARNKKSITIDLRTPEGQALVKRLVPHVDMVLENFRPGTLEEWGLGWEELHALNPGLIMIRVSGFGQTGPYRDKAGFGSIGEAMGGIRAITGFPDRPPTRIGISIGDSLAATFAALGALVALHQRQRSGQGQVVDIGIYEGVLALMESMIPEYQLTGHIRERTGNILPNVAPSNIYPTADGSWFVIGANADTIFTRLAQAMGQPELATDPRFATHQARGEHQAELDDLIAAWTLNYTADQLQVMMDEYGVPAGRIYTAKEMLSDPHFIARQSIIGVHDPDLGEIKMQNVVPRLSATPGGVDWTGPALGQHNREIFTDLLGLTEDDLAMLQAKRVI
Q: With B5 as the molecule, how does the Solubility [1] read?
A: The Solubility was “✓”.

Q: And the ketothiol-product [2]?
A: Its ketothiol-product is “✓”.

Q: And the thiol-product [2]?
A: The thiol-product was “✓”.

B6: Bdigene 0344: Succinyl-CoA: acetate CoA-transferase from Acetobacter aceti, Uniprot B3EY95 (protein, UniProt B3EY95 1-505, looked up)
Succinyl-CoA:acetate …: MTERIRNVALRSKVCPAETASELIKHGDVVGTSGFTGAGYPKEVPKALAQRMEAAHDRGEKYQISLITGASTGPQLDGELAKANGVYFRSPFNTDATMRNRINAGETEYFDNHLGQVAGRAVQGNYGKFNIALVEATAITEDGGIVPTSSVGNSQTFLNLAEKVIIEVNEWQNPMLEGIHDIWDGNVSGVPTRDIVPIVRADQRVGGPVLRVNPDKIAAIVRTNDRDRNAPFAAPDETAKAIAGYLLDFFGHEVKQNRLPPSLLPLQSGVGNVANAVLEGLKEGPFENLVGYSEVIQDGMLAMLDSGRMRIASASSFSLSPEAAEEINNRMDFFRSKIILRQQDVSNSPGIIRRLGCIAMNGMIEADIYGNVNSTRVMGSKMMNGIGGSGDFARSSYLSIFLSPSTAKGGKISAIVPMAAHVDHIMQDAQIFVTEQGLADLRGLSPVQRAREIISKCAHPDYRPMLQDYFDRALKNSFGKHTPHLLTEALSWHQRFIDTGTMLPS
Q: For B6, which Solubility [1] is on record?
A: Its Solubility is “✓”.

Q: And the ketothiol-product [2]?
A: Its ketothiol-product is “✓”.

Q: What about the thiol-product [2] of the same molecule?
A: The thiol-product was “✓”.
